# Experimental data: article PMC3153611
# Target: SRPK1 (UniProt Q96SB4)
# Assay: rapid quench single-turnover, fast-phase amplitude
# Settings: reference: 0P complex (no pre-phosphorylation)
row,Substance,other: fast-phase amplitude αp at 1 µM SRPK1
1,SRSF1 (aka ASF/SF2) (from UniProt Q07955) 1P complex (1.2 phosphates in RS1),same; reference 1.0 ± 0.18
2,SRSF1 (aka ASF/SF2) (from UniProt Q07955) 4P complex (4 phosphates in RS1),same; reference 1.0 ± 0.18
3,SRSF1 (aka ASF/SF2) (from UniProt Q07955) 6P complex (6.3 phosphates in RS1),weaker; reference 1.0 ± 0.18
4,SRSF1 (aka ASF/SF2) (from UniProt Q07955) 8P complex (8.3 phosphates in RS1),weaker; reference 1.0 ± 0.18
